# Test results reported in US11702475B2, “Cysteine engineered fibronectin type III domain binding molecules” (Janssen Biotech, Inc., priority 2013, dated 2023).
# Substitutions are numbered along the chain they refer to.
# B1: L7C (conjugate)
# chain: LPAPKNCVVSEVTEDSARLSWDDPWAFYESFLIQYQESEKVGEAIVLTVPGSERSYDLTGLKPGTEYTVSIYGVHNVYKDTNMRGLPLSAIFTT
# modifications: left off: small tags and cut ends
# B2: A26C (conjugate)
# chain: B1 chain with C7L, A26C
# modifications: left off: small tags and cut ends
# B3: Y28C (conjugate)
# chain: B1 chain with C7L, Y28C
# modifications: left off: small tags and cut ends
# B4: S55C (conjugate)
# chain: B1 chain with C7L, S55C
# modifications: left off: small tags and cut ends
# B5: D22C (conjugate)
# chain: B1 chain with C7L, D22C
# modifications: left off: small tags and cut ends
# B6: R84C (conjugate)
# chain: B1 chain with C7L, R84C
# modifications: left off: small tags and cut ends
# B7: G85C (conjugate)
# chain: B1 chain with C7L, G85C
# modifications: left off: small tags and cut ends
# B8: W25C (conjugate)
# chain: B1 chain with C7L, W25C
# modifications: left off: small tags and cut ends
# B9: P4C (conjugate)
# chain: B1 chain with P4C, C7L
# modifications: left off: small tags and cut ends
# B10: T81C (conjugate)
# chain: B1 chain with C7L, T81C
# modifications: left off: small tags and cut ends
# B11: A3C (conjugate)
# chain: B1 chain with A3C, C7L
# modifications: left off: small tags and cut ends
# B12: N76C (conjugate)
# chain: B1 chain with C7L, N76C
# modifications: left off: small tags and cut ends
# B13: V46C (conjugate)
# chain: B1 chain with C7L, V46C
# modifications: left off: small tags and cut ends
# B14: Y78C (conjugate)
# chain: B1 chain with C7L, Y78C
# modifications: left off: small tags and cut ends
# B15: D23C (conjugate)
# chain: B1 chain with C7L, D23C
# modifications: left off: small tags and cut ends
# B16: K5C (conjugate)
# chain: B1 chain with K5C, C7L
# modifications: left off: small tags and cut ends
# B17: F31C (conjugate)
# chain: B1 chain with C7L, F31C
# modifications: left off: small tags and cut ends
# B18: K79C (conjugate)
# chain: B1 chain with C7L, K79C
# modifications: left off: small tags and cut ends
# B19: D80C (conjugate)
# chain: B1 chain with C7L, D80C
# modifications: left off: small tags and cut ends
# B20: F27C (conjugate)
# chain: B1 chain with C7L, F27C
# modifications: left off: small tags and cut ends
# B21: L86C (conjugate)
# chain: B1 chain with C7L, L86C
# modifications: left off: small tags and cut ends
# B22: V77C (conjugate)
# chain: B1 chain with C7L, V77C
# modifications: left off: small tags and cut ends
# B23: H75C (conjugate)
# chain: B1 chain with C7L, H75C
# modifications: left off: small tags and cut ends
# B24: P87C (conjugate)
# chain: B1 chain with C7L, P87C
# modifications: left off: small tags and cut ends
# B25: G73C (conjugate)
# chain: B1 chain with C7L, G73C
# modifications: left off: small tags and cut ends
# B26: P2C (conjugate)
# chain: B1 chain with P2C, C7L
# modifications: left off: small tags and cut ends
# B27: M83C (conjugate)
# chain: B1 chain with C7L, M83C
# modifications: left off: small tags and cut ends
# B28: N82C (conjugate)
# chain: B1 chain with C7L, N82C
# modifications: left off: small tags and cut ends
# B29: S52C (conjugate)
# chain: B1 chain with C7L, S52C
# modifications: left off: small tags and cut ends
# B30: E43C (conjugate)
# chain: B1 chain with C7L, E43C
# modifications: left off: small tags and cut ends
# B31: P24C (conjugate)
# chain: B1 chain with C7L, P24C
# modifications: left off: small tags and cut ends
# Experiment: Analytical size exclusion chromatography (percent monomer)
# Format: physicochemical
# Details: NEM-conjugated cysteine variants; SEC, Abs280 monomer region 5.5-6 minutes vs oligomer region 4-5.3 minutes
# Protocol: Size exclusion chromatography was used to determine the aggregation state of the FN3 domains binding EGFR. Aliquots (10 μL) of each purified FN3 domain were injected onto a Superdex 75 5/150 column (GE Healthcare) at a flow rate of 0.3 mL/min in a mobile phase of PBS pH 7.4. Elution from the column was monitored by absorbance at 280 nm.
# The percent monomer for each protein was determined by integrating the Abs280 signal and comparing the peak in the monomer region (5.5-6 minutes) to the peaks in the oligomer region (4-5.3 minutes).
row,Molecule,Percent monomer [%]
1,B1,93
2,B2,95
3,B3,92
4,B4,100
5,B5,85
6,B6,100
7,B7,95
8,B8,76
9,B9,100
10,B10,86
11,B11,100
12,B12,94
13,B13,100
14,B14,90
15,B15,100
16,B16,100

row,Molecule,Percent monomer [%]
1,B17,57
2,B18,100
3,B19,79
4,B20,97
5,B21,83
6,B22,92
7,B23,100
8,B24,98
9,B25,66
10,B26,86
11,B27,91
12,B28,100
13,B29,100
14,B30,100
15,B31,88
